Source: patent US10487337B2, “Methods for monocot plant improvement” (Agresearch Limited, priority 2014, dated 2019)

Target: T1, BZR1 (Arabidopsis thaliana, UniProt Q8S307)
T1 construct: expressed in transfected cells; host or cells: yeast strain MaV203
T1 sequence (Q8S307 with tags, fused parts or gaps): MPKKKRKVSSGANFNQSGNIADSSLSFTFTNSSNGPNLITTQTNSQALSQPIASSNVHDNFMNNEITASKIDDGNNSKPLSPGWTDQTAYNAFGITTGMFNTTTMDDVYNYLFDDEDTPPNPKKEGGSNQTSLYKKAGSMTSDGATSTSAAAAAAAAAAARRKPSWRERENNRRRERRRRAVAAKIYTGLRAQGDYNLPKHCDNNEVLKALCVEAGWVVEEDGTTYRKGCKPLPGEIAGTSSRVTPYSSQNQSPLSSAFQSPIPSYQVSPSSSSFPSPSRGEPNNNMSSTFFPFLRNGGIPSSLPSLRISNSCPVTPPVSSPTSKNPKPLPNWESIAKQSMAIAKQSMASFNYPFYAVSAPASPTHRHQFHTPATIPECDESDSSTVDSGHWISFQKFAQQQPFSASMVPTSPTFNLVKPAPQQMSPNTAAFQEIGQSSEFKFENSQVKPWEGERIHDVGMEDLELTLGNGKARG
Test: Yeast two hybrid (Y2H) interaction with BZR1
Type: binding
Excerpt: The constructs for Y2H and BiFC assays were generated as follows. Arabidopsis DNA sequences encoding the open reading frames for; At4g14713 (PPD1) and truncation and deletion derivatives of PPD1: PPD1; PPD1Δppd (N-terminal truncation of sequences encoding aa 1-61), PPD1Δtify, (internal deletion of sequences encoding aa 154-186), PPD1Δjas*(C-terminal truncation of sequences encoding aa 229-313) (FIG. 5), At4g28910 (NINJA), At1g15750 (TPL), At1g75080 (BZR1), a synthetic PUAS-35S promoter, and sequences encoding GAL4DBD and c-myc fusion proteins were synthesised and sequence verified by GeneArt. Most sequences were supplied as clones in pENTR221 ready for Gateway cloning into yeast and plant expression vectors. The exception, a promoter sequence for in planta transcription activation assays, incorporating 5′ Xho1 and 3′ Nco1 restriction enzyme sites, was supplied cloned in pMA-RQ. Plasmids for the transient LUC reporter assay: A synthetic promoter with 5×UAS GAL4 DNA binding sites upstream of a −105 bp CaMV35S promoter was cloned into the XhoI-NcoI sites within a dual luciferase construct pNWA62, which contains an intron-containing Firefly Luciferase gene (LUC) and 35Spro::Renilla Luciferase (REN) as an internal standard, to construct pAML7. […]

B1: PPD1: PEAPOD 1 protein of Arabidopsis thaliana, SEQ ID NO: 1 (protein, listed as Arabidopsis thaliana)
chain: MDVGVSPAKSILAKPLKLLTEEDISQLTREDCRKFLKDKGMRRPSWNKSQAIQQVLSLKALYEPGDDSGAGIFRKILVSQPVNPPRVTTTLIEPSNELEACGRVSYPEDNGACHRMDSPRSAEFSGGSGHFVSEKDGHKTTISPRSPAETSELVGQMTIFYSGKVNVYDGIPPEKARSIMHFAANPIDLPENGIFASSRMISKLISKEKMMELPQKGLEKANSSRDSGMEGQANRKVSLQRYREKRKDRKFSKAKKCPGVASSSLEMFLNCQPRMKAAYSQNLGCTGSPLHSQSPESQTKSPNLSVDLNSEGI
interaction with BZR1: no direct interaction
